Results from patent US20230250154A1.
Each block holds one binder with its values, some of them ahead of it.

Target: Protease Mixtures
Assay: cell-based or functional assay

B2: Variant A2M, bait region SEQ ID NO 132, P01023 24-1474 (protein)
chain: SVSGKPQYMVLVPSLLHTETTEKGCVLLSYLNETVTVSASLESVRGNRSLFTDLEAENDVLHCVAFAVPKSSSNEEVMFLTVQVKGPTQEFKKRTTVMVKNEDSLVFVQTDKSIYKPGQTVKFRVVSMDENFHPLNELIPLVYIQDPKGNRIAQWQSFQLEGGLKQFSFPLSSEPFQGSYKVVVQKKSGGRTEHPFTVEEFVLPKFEVQVTVPKIITILEEEMNVSVCGLYTYGKPVPGHVTVSICRKYSDASDCHGEDSQAFCEKFSGQLNSHGCFYQQVKTKVFQLKRKEYEMKLHTEAQIQEEGTVVELTGRQSSEITRTITKLSFVKVDSHFRQGIPFFGQVRLVDGKGVPIPNKVIFIRGNEANYYSNATTDEHGLVQFSINTTNVMGTSLTVRVNYKDRSPCYGYQWVSEEHEEAHHTAYLVFSPSKSFVHLEPMSHELPCGHTQTVQAHYILNGGTLLGLKKLSFYYLIMAKGGIVRTGTHGLLVKQEDMKGHFSISIPVKSDIAPVARLLIYAVLPTGDVIGDSAKYDVENCLANKVDLSFSPSQSLPASHAHLRVTAAPQSVCALRAVDQSVLLMKPDAELSASSVYNLLPEKDLTGFPGPLNDQDDEDCINRHNVYINGITYTPVSSTNEKDMYSFLEDMGLKAFTNSKIRKPKMCPQLEQYEMHGPEGEGEGEGIPENFFGVSELEGRGSSEDLVVQIVEEPHTKLRKYFPETWIWDLVVVNSAGVAEVGVTVPDTITEWKAGAFCLSEDAGLGISSTASLRAFQPFFVELTMPYSVIRGEAFTLKATVLNYLPKCIRVSVQLEASPAFLAVPVEKEQAPHCICANGRQTVSWAVTPKSLGNVNFTVSAEALESQELCGTEVPSVPEHGRKDTVIKPLLVEPEGLEKETTFNSLLCPSGGEVSEELSLKLPPNVVEESARASVSVLGDILGSAMQNTQNLLQMPYGCGEQNMVLFAPNIYVLDYLNETQQLTPEIKSKAIGYLNTGYQRQLNYKHYDGSYSTFGERYGRNQGNTWLTAFVLKTFAQARAYIFIDEAHITQALIWLSQRQKDNGCFRSSGSLLNNAIKGGVEDEVTLSAYITIALLEIPLTVTHPVVRNALFCLESAWKTAQEGDHGSHVYTKALLAYAFALAGNQDKRKEVLKSLNEEAVKKDNSVHWERPQKPKAPVGHFYEPQAPSAEVEMTSYVLLAYLTAQPAPTSEDLTSATNIVKWITKQQNAQGGFSSTQDTVVALHALSKYGAATFTRTGKAAQVTIQSSGTFSSKFQVDNNNRLLLQQVSLPELPGEYSMKVTGEGCVYLQTSLKYNILPEKEEFPFALGVQTLPQTCDEPKAHTSFQISLSVSYTGSRSASNMAIVDVKMVSGFIPLKPTVKMLERSNHVSRTEVSSNHVLIYLDKVSNQTLSLFFTVLQDVPVRDLKPAIVKVYDYYETDEFAIAEYNAPCSKDLGNADYKDDDDKGASHHHHHH
- Protease Inhibition (% of WT); Protease Mixtures, Collagen Substrate: 120 % of WT
- Protease Inhibition (% of WT); Protease Mixtures, IGD Substrate: 243 % of WT

B4: Variant A2M, bait region SEQ ID NO 135, P01023 24-1474 (protein)
chain: SVSGKPQYMVLVPSLLHTETTEKGCVLLSYLNETVTVSASLESVRGNRSLFTDLEAENDVLHCVAFAVPKSSSNEEVMFLTVQVKGPTQEFKKRTTVMVKNEDSLVFVQTDKSIYKPGQTVKFRVVSMDENFHPLNELIPLVYIQDPKGNRIAQWQSFQLEGGLKQFSFPLSSEPFQGSYKVVVQKKSGGRTEHPFTVEEFVLPKFEVQVTVPKIITILEEEMNVSVCGLYTYGKPVPGHVTVSICRKYSDASDCHGEDSQAFCEKFSGQLNSHGCFYQQVKTKVFQLKRKEYEMKLHTEAQIQEEGTVVELTGRQSSEITRTITKLSFVKVDSHFRQGIPFFGQVRLVDGKGVPIPNKVIFIRGNEANYYSNATTDEHGLVQFSINTTNVMGTSLTVRVNYKDRSPCYGYQWVSEEHEEAHHTAYLVFSPSKSFVHLEPMSHELPCGHTQTVQAHYILNGGTLLGLKKLSFYYLIMAKGGIVRTGTHGLLVKQEDMKGHFSISIPVKSDIAPVARLLIYAVLPTGDVIGDSAKYDVENCLANKVDLSFSPSQSLPASHAHLRVTAAPQSVCALRAVDQSVLLMKPDAELSASSVYNLLPEKDLTGFPGPLNDQDDEDCINRHNVYINGITYTPVSSTNEKDMYSFLEDMGLKAFTNSKIRKPKMCPQLEQYEMHGPIPENFFGVSELEGRGSSEDLVVQIKEEEGLGSVEEPHTKLRKYFPETWIWDLVVVNSAGVAEVGVTVPDTITEWKAGAFCLSEDAGLGISSTASLRAFQPFFVELTMPYSVIRGEAFTLKATVLNYLPKCIRVSVQLEASPAFLAVPVEKEQAPHCICANGRQTVSWAVTPKSLGNVNFTVSAEALESQELCGTEVPSVPEHGRKDTVIKPLLVEPEGLEKETTFNSLLCPSGGEVSEELSLKLPPNVVEESARASVSVLGDILGSAMQNTQNLLQMPYGCGEQNMVLFAPNIYVLDYLNETQQLTPEIKSKAIGYLNTGYQRQLNYKHYDGSYSTFGERYGRNQGNTWLTAFVLKTFAQARAYIFIDEAHITQALIWLSQRQKDNGCFRSSGSLLNNAIKGGVEDEVTLSAYITIALLEIPLTVTHPVVRNALFCLESAWKTAQEGDHGSHVYTKALLAYAFALAGNQDKRKEVLKSLNEEAVKKDNSVHWERPQKPKAPVGHFYEPQAPSAEVEMTSYVLLAYLTAQPAPTSEDLTSATNIVKWITKQQNAQGGFSSTQDTVVALHALSKYGAATFTRTGKAAQVTIQSSGTFSSKFQVDNNNRLLLQQVSLPELPGEYSMKVTGEGCVYLQTSLKYNILPEKEEFPFALGVQTLPQTCDEPKAHTSFQISLSVSYTGSRSASNMAIVDVKMVSGFIPLKPTVKMLERSNHVSRTEVSSNHVLIYLDKVSNQTLSLFFTVLQDVPVRDLKPAIVKVYDYYETDEFAIAEYNAPCSKDLGNADYKDDDDKGASHHHHHH
- Protease Inhibition (% of WT); Protease Mixtures, IGD Substrate: 140 % of WT

The next lines start with the values.

- Protease Inhibition (% of WT); Protease Mixtures, IGD Substrate: 220 % of WT
B1: Variant A2M, bait region SEQ ID NO 134, P01023 24-1474 (protein)
chain: SVSGKPQYMVLVPSLLHTETTEKGCVLLSYLNETVTVSASLESVRGNRSLFTDLEAENDVLHCVAFAVPKSSSNEEVMFLTVQVKGPTQEFKKRTTVMVKNEDSLVFVQTDKSIYKPGQTVKFRVVSMDENFHPLNELIPLVYIQDPKGNRIAQWQSFQLEGGLKQFSFPLSSEPFQGSYKVVVQKKSGGRTEHPFTVEEFVLPKFEVQVTVPKIITILEEEMNVSVCGLYTYGKPVPGHVTVSICRKYSDASDCHGEDSQAFCEKFSGQLNSHGCFYQQVKTKVFQLKRKEYEMKLHTEAQIQEEGTVVELTGRQSSEITRTITKLSFVKVDSHFRQGIPFFGQVRLVDGKGVPIPNKVIFIRGNEANYYSNATTDEHGLVQFSINTTNVMGTSLTVRVNYKDRSPCYGYQWVSEEHEEAHHTAYLVFSPSKSFVHLEPMSHELPCGHTQTVQAHYILNGGTLLGLKKLSFYYLIMAKGGIVRTGTHGLLVKQEDMKGHFSISIPVKSDIAPVARLLIYAVLPTGDVIGDSAKYDVENCLANKVDLSFSPSQSLPASHAHLRVTAAPQSVCALRAVDQSVLLMKPDAELSASSVYNLLPEKDLTGFPGPLNDQDDEDCINRHNVYINGITYTPVSSTNEKDMYSFLEDMGLKAFTNSKIRKPKMCPQLEQYEMHGPSELEGRGSIPENFFGVKEEEGLGSSEDLVVQIVEEPHTKLRKYFPETWIWDLVVVNSAGVAEVGVTVPDTITEWKAGAFCLSEDAGLGISSTASLRAFQPFFVELTMPYSVIRGEAFTLKATVLNYLPKCIRVSVQLEASPAFLAVPVEKEQAPHCICANGRQTVSWAVTPKSLGNVNFTVSAEALESQELCGTEVPSVPEHGRKDTVIKPLLVEPEGLEKETTFNSLLCPSGGEVSEELSLKLPPNVVEESARASVSVLGDILGSAMQNTQNLLQMPYGCGEQNMVLFAPNIYVLDYLNETQQLTPEIKSKAIGYLNTGYQRQLNYKHYDGSYSTFGERYGRNQGNTWLTAFVLKTFAQARAYIFIDEAHITQALIWLSQRQKDNGCFRSSGSLLNNAIKGGVEDEVTLSAYITIALLEIPLTVTHPVVRNALFCLESAWKTAQEGDHGSHVYTKALLAYAFALAGNQDKRKEVLKSLNEEAVKKDNSVHWERPQKPKAPVGHFYEPQAPSAEVEMTSYVLLAYLTAQPAPTSEDLTSATNIVKWITKQQNAQGGFSSTQDTVVALHALSKYGAATFTRTGKAAQVTIQSSGTFSSKFQVDNNNRLLLQQVSLPELPGEYSMKVTGEGCVYLQTSLKYNILPEKEEFPFALGVQTLPQTCDEPKAHTSFQISLSVSYTGSRSASNMAIVDVKMVSGFIPLKPTVKMLERSNHVSRTEVSSNHVLIYLDKVSNQTLSLFFTVLQDVPVRDLKPAIVKVYDYYETDEFAIAEYNAPCSKDLGNADYKDDDDKGASHHHHHH

- Protease Inhibition (% of WT); Protease Mixtures, IGD Substrate: 75 % of WT
B3: Variant A2M, bait region SEQ ID NO 133, P01023 24-1474 (protein)
chain: SVSGKPQYMVLVPSLLHTETTEKGCVLLSYLNETVTVSASLESVRGNRSLFTDLEAENDVLHCVAFAVPKSSSNEEVMFLTVQVKGPTQEFKKRTTVMVKNEDSLVFVQTDKSIYKPGQTVKFRVVSMDENFHPLNELIPLVYIQDPKGNRIAQWQSFQLEGGLKQFSFPLSSEPFQGSYKVVVQKKSGGRTEHPFTVEEFVLPKFEVQVTVPKIITILEEEMNVSVCGLYTYGKPVPGHVTVSICRKYSDASDCHGEDSQAFCEKFSGQLNSHGCFYQQVKTKVFQLKRKEYEMKLHTEAQIQEEGTVVELTGRQSSEITRTITKLSFVKVDSHFRQGIPFFGQVRLVDGKGVPIPNKVIFIRGNEANYYSNATTDEHGLVQFSINTTNVMGTSLTVRVNYKDRSPCYGYQWVSEEHEEAHHTAYLVFSPSKSFVHLEPMSHELPCGHTQTVQAHYILNGGTLLGLKKLSFYYLIMAKGGIVRTGTHGLLVKQEDMKGHFSISIPVKSDIAPVARLLIYAVLPTGDVIGDSAKYDVENCLANKVDLSFSPSQSLPASHAHLRVTAAPQSVCALRAVDQSVLLMKPDAELSASSVYNLLPEKDLTGFPGPLNDQDDEDCINRHNVYINGITYTPVSSTNEKDMYSFLEDMGLKAFTNSKIRKPKMCPQLEQYEMHGPIPENFFGVEGEGEGESELEGRGSSEDLVVQIVEEPHTKLRKYFPETWIWDLVVVNSAGVAEVGVTVPDTITEWKAGAFCLSEDAGLGISSTASLRAFQPFFVELTMPYSVIRGEAFTLKATVLNYLPKCIRVSVQLEASPAFLAVPVEKEQAPHCICANGRQTVSWAVTPKSLGNVNFTVSAEALESQELCGTEVPSVPEHGRKDTVIKPLLVEPEGLEKETTFNSLLCPSGGEVSEELSLKLPPNVVEESARASVSVLGDILGSAMQNTQNLLQMPYGCGEQNMVLFAPNIYVLDYLNETQQLTPEIKSKAIGYLNTGYQRQLNYKHYDGSYSTFGERYGRNQGNTWLTAFVLKTFAQARAYIFIDEAHITQALIWLSQRQKDNGCFRSSGSLLNNAIKGGVEDEVTLSAYITIALLEIPLTVTHPVVRNALFCLESAWKTAQEGDHGSHVYTKALLAYAFALAGNQDKRKEVLKSLNEEAVKKDNSVHWERPQKPKAPVGHFYEPQAPSAEVEMTSYVLLAYLTAQPAPTSEDLTSATNIVKWITKQQNAQGGFSSTQDTVVALHALSKYGAATFTRTGKAAQVTIQSSGTFSSKFQVDNNNRLLLQQVSLPELPGEYSMKVTGEGCVYLQTSLKYNILPEKEEFPFALGVQTLPQTCDEPKAHTSFQISLSVSYTGSRSASNMAIVDVKMVSGFIPLKPTVKMLERSNHVSRTEVSSNHVLIYLDKVSNQTLSLFFTVLQDVPVRDLKPAIVKVYDYYETDEFAIAEYNAPCSKDLGNADYKDDDDKGASHHHHHH
